Measurements from US20260209294A1, “USE OF RECOMBINANT PROTEIN IN PREPARING DRUG FOR INHIBITING ANEURYSM” (HUAZHONG UNIVERSITY OF SCIENCE AND TECHNOLOGY, priority 2022, published 2026).

What was measured:
[1] = tested on: BAPN-induced aortic aneurysm; assay: β-aminopropionitrile (BAPN)-induced aortic aneurysm model; format: in vivo, C57BL/6 male mice; details: BAPN-fed mice
Description: FIG. 14 depicts an AGGF1 treatment for a β-aminopropionitrile (BAPN)-induced aortic aneurysm. […] The bar graphs below show the intimal thickness (1st image), the adventitia thickness (2nd image), and the total carotid artery wall thickness (3rd image). […] The bar graphs on the right show the percentage of the positive area for respective immunostaining quantifications. […] The GAPDH serves as a loading control. *, P<0.05; **, P<0.01; ***, P<0.001; n≥8/group for mouse studies, other sample sizes n=4/group.
β-aminopropionitrile is a lysyl oxidase (LOX) inhibitor that is readily soluble in water. Three-week-old mice fed with 0.25% BAPN have a very high incidence of the thoracic aortic aneurysm after 4 weeks. Three-week-old C57BL/6 male mice were divided into 4 groups, with ultrasound detection of the aorta on day 28, followed by euthanasia and collection of the aorta for Western Blotting experiments and histochemical staining.

[2] = tested on: aortic aneurysm induced by Fbn1^C1041G/+ mutation; assay: AGGF1 treatment of spontaneous aortic aneurysm in Fbn1 C1041G/+ mutant mice; format: in vivo
Description: FIG. 13 depicts an AGGF1 treatment for a spontaneous aortic aneurysm in FbnC1041G/+ mutant mice. […] The bar graph on the right illustrates the luminal diameter of the ascending aortic. […] The GAPDH serves as a loading control. […] The bar graphs on the right indicate the percentage of the positive area for the respective immunostaining quantification. *, P<0.05; **, P<0.01; ***, P<0.001; n=8/group for mouse studies, other sample sizes n=4/group.
The present disclosure obtained the previously published Fbn1^C1041G/+ mutant mice from Tongji Hospital. Compared with the wild-type mice, we detected spontaneous aortic expansion in these mice at week 10, resulting in the aortic aneurysm. After obtaining these mice, at week 10, mice were intraperitoneally injected with Buffer or AGGF1 protein, and the injection continued until week 18. At week 18, mice underwent ultrasound examination, then were euthanized and their aortas were collected for Western Blotting experiments and histochemical staining.

[3] = target: T1, integrin α7 / LAP-TGF-β1 interaction (Homo sapiens, UniProt Q13683); assay: Co-IP of LAP-TGF-β1-GFP and integrin α7-FLAG in HEK293T cells; format: cell-based; details: AGGF1 overexpression or stimulation for 24 hours
T1 construct: FLAG; GFP; expressed in transfected cells; host or cells: HEK293T
T1 sequence (Q13683 34-1181): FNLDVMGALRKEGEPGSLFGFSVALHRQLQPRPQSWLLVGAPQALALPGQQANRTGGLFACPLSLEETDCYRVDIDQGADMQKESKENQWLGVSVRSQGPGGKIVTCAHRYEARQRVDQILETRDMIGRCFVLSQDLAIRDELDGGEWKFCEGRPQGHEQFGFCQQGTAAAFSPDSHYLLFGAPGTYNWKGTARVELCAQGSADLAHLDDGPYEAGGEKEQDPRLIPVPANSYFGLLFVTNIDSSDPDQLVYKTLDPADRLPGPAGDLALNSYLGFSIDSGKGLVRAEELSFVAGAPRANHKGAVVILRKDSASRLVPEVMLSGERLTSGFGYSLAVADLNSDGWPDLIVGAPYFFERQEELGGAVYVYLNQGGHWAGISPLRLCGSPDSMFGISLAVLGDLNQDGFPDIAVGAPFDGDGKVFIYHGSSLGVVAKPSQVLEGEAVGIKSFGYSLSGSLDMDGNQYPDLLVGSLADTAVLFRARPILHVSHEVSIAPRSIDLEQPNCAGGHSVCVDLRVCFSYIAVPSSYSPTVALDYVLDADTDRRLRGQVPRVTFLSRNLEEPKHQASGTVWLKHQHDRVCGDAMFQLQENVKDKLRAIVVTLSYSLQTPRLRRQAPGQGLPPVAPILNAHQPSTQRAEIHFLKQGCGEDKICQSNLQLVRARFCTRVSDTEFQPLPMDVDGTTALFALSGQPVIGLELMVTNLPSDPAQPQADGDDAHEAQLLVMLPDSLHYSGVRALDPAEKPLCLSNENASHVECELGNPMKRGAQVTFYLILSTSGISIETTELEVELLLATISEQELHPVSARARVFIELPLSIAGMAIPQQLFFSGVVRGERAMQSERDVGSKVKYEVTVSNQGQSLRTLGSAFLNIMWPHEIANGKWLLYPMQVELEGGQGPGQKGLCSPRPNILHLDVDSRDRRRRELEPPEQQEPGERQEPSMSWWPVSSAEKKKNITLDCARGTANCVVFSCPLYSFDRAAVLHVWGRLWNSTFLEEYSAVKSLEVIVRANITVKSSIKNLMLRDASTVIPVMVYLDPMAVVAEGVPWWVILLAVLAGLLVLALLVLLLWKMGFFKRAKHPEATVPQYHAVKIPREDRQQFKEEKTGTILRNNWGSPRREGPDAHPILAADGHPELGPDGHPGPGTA
T1 sequence (P05556 21-798 partner): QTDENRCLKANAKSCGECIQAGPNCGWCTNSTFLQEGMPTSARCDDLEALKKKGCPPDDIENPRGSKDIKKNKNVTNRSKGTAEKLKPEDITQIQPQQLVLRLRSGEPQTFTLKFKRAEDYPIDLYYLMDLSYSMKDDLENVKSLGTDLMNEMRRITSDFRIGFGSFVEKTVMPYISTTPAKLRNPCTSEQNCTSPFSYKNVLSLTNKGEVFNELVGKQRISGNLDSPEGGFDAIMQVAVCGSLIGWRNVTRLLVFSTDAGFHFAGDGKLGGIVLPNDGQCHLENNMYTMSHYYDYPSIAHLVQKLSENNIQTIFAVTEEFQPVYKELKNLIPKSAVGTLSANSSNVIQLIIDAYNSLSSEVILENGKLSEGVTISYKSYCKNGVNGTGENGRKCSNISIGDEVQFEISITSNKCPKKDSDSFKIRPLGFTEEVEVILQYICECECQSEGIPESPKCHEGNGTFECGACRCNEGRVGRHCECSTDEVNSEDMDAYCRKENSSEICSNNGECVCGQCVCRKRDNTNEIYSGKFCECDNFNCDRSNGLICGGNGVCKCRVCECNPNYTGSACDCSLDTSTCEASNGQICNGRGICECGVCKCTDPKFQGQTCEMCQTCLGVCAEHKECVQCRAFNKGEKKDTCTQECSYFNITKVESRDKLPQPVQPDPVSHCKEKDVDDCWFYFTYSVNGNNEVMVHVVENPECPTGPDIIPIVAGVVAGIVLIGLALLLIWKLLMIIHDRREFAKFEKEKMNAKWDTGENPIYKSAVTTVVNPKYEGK
Description: FIG. 10 illustrates that the integrin α7 interacts with LAP-TGF-β1 via an RGD sequence, and AGGF1 enhances this interaction. […] Quantitative data of a LAP-TGF-β1-GFP/α7-FLAG ratio are plotted as bar graphs on the right. […] Quantitative data of the LAP-TGF-β1-GFP/α7-FLAG ratio are plotted as bar graphs on the right. *, P<0.05; **, P<0.01; ***, P<0.001; n=3/group.

[4] = tested on: TAC-induced mouse aneurysm model; assay: TAC (transverse aortic constriction)-induced aneurysm model, i.p. recombinant AGGF1 or AGGF1-RDDdel protein; format: in vivo, C57BL/6 mice; details: 0.5 mg/kg i.p., day 21
[5] = tested on: TGFβ1 signaling pathway in VSMC cells (aortic smooth muscle cells); assay: VSMC cells treated with AGGF1 protein: Western blot, ELISA, RT-PCR of TGFβ1 signaling; format: cell-based
Procedure: FIG. 8 depicts that AGGF1 inhibits TGF-β1 and ERK1/2 signaling pathways and a TGF-β1-induced VSMC inflammation. […] Subsequently, cell lysates are collected for the western blot analysis of p-ERK1/2, T-ERK1/2, and p-Smad3. The GAPDH serves as a loading control. […] After 48 hours, the cell lysates are collected for the western blot analysis of p-ERK1/2, T-ERK1/2, and p-Smad3. […] The GAPDH serves as a loading control. […] Subsequently, mRNA is extracted using a Trizol method and reverse transcribed to obtain cDNA for a real-time RT-PCR detection of Il-6, Mcp1, Mmp2, and Mmp9 mRNA levels. […] Subsequently, mRNA is extracted using the Trizol method and reverse transcribed to obtain cDNA. The real-time RT-PCR is performed to analyze the mRNA levels of Il-6, Mcp1, Mmp2, and Mmp9. *, P<0.05; **, P<0.01; ***, P<0.001; n=3/group.
The β-actin serves as a loading control. […] The GAPDH serves as a loading control. […] The mRNA is extracted using the Trizol method and reverse transcribed to obtain cDNA. […] Cells are transfected with different plasmids of LAP-TGF-β1-FLAG and the integrin α7-FLAG, and treated with the purified AGGF1 or AGGF1-RDDdel for 24 hours, with grouping as shown in FIG. K. *, P<0.05; **, P<0.01; ***, P<0.001; n≥3/group.
In vitro experiments were performed using aortic smooth muscle cells and HEK293T cells. As shown in A-C of FIG. 8 and A-F of FIG. 9, whether with recombinant AGGF1 protein, AGGF1-FLAG overexpression, or AGGF1 silencing, Western blot analysis and ELISA experimental results verified that AGGF1 inhibits the TGFβ1 signaling pathway (Smad3 and ERK1/2) and the level of the mature TGFβ1. […] In the Western blot analysis of FIG. 10, it was verified that LAP-TGFβ1 interacts with integrin α7 through the RGD sequence, which is also the molecular mechanism by which integrin α7 inhibits TGFβ1.

B1: AGGF1 protein: recombinant human AGGF1 protein with His tag, SEQ ID NO:1, expressed from pet28-AGGF1 in Escherichia coli BL21 (DE3) (protein, listed as Homo sapiens)
chain: MASEAPSPPRSPPPPTSPEPELAQLRRKVEKLERELRSCKRQVREIEKLLHHTERLYQNAESNNQELRTQVEELSKILQRGRNEDNKKSDVEVQTENHAPWSISDYFYQTYYNDVSLPNKVTELSDQQDQAIETSILNSKDHLQVENDAYPGTDRTENVKYRQVDHFASNSQEPASALATEDTSLEGSSLAESLRAAAEAAVSQTGFSYDENTGLYFDHSTGFYYDSENQLYYDPSTGIYYYCDVESGRYQFHSRVDLQPYPTSSTKQSKDKKLKKKRKDPDSSATNEEKDLNSEDQKAFSVEHTSCNEEENFANMKKKAKIGIHHKNSPPKVTVPTSGNTIESPLHENISNSTSFKDEKIMETDSEPEEGEITDSQTEDSYDEAITSEGNVTAEDSEDEDEDKIWPPCIRVIVIRSPVLQIGSLFIITAVNPATIGREKDMEHTLRIPEVGVSKFHAEIYFDHDLQSYVLVDQGSQNGTIVNGKQILQPKTKCDPYVLEHGDEVKIGETVLSFHIHPGSDTCDGCEPGQVRAHLRLDKKDESFVGPTLSKEEKELERRKELKKIRVKYGLQNTEYEDEKTLKNPKYKDRAGKRREQVGSEGTFQRDDAPASVHSEITDSNKGRKMLEKMGWKKGEGLGKDGGGMKTPIQLQLRRTHAGLGTGKPSSFEDVHLLQNKNKKNWDKARERFTENFPETKPQKDDPGTMPWVKGTLE
modifications: His tag
incidence of BAPN-induced aortic dissection [1]: no effect
level of the mature TGFβ1 (Western blot, ascending aorta) [1]: inhibited
p-ERK (Western blot, ascending aorta) [1]: inhibited
p-Smad2 (Western blot, ascending aorta) [1]: inhibited
p-Smad3 (Western blot, ascending aorta) [1]: inhibited
survival rate of aneurysm model mice [1]: significantly improve
aortic inflammation ([1]; day 28): significantly inhibited
aortic remodeling ([1]; day 28): significantly inhibited
aortic thickening (H&E staining) ([1]; day 28): significantly inhibited
vascular expansion (ascending aorta, ultrasound) ([1]; day 28): inhibitory effect
expansion of the ascending aorta ([2]; i.p. from week 10 to week 18, ultrasound at week 18): significantly inhibit
increase in αSMA/CD68/MCP1 levels (immunostaining positive areas) ([2]; week 18): significantly inhibit
level of mature TGFβ1 (Western blot, ascending aorta) ([2]; week 18): inhibited
p-ERK (Western blot, ascending aorta) ([2]; week 18): inhibited
p-Smad2 (Western blot, ascending aorta) ([2]; week 18): inhibited
p-Smad3 (Western blot, ascending aorta) ([2]; week 18): inhibited
thickening of the vascular media ([2]; week 18): significantly inhibit
interaction of integrin α7 with LAP-TGF-β1 (LAP-TGF-β1-GFP/α7-FLAG ratio) [3]: enhances
level of the mature TGFβ1 (Western blot, ascending aorta, FIG. 7) [4]: inhibit
p-ERK1/2 (Western blot, ascending aorta, FIG. 7) [4]: inhibit
p-Smad3 (Western blot, ascending aorta, FIG. 7) [4]: inhibit
TGFβ1-induced inflammation (Il6, Mcp1, Mmp2, Mmp9) ([5]; RT-PCR, TGF-β1 24 hours then AGGF1 24 hours): inhibit
level of the mature TGFβ1 ([5]; Western blot and ELISA, protein treatment 48 hours): inhibits
TGFβ1 signaling pathway (Smad3 and ERK1/2) ([5]; Western blot, TGF-β1 15 minutes then AGGF1 10 minutes): inhibits
